In US20070065890A1, “Method for promoting formation of facultative heterochromatin” (priority 2005, published 2007):

Legend:
recombinant human H1b = target: T1, recombinant human H1b (Homo sapiens, UniProt P10412); test: In vitro deacetylation of p300-acetylated recombinant H1b by SirT proteins; type: biochemical; details: equal NAD+-exchange units measured using acetylated BSA as substrate
T1 construct: Human histone H1b and H1° were inserted into HA-Pet30c; HA (N); made in house; host or cells: E. coli BL21 (DE3)
T1 sequence (P10412 2-219): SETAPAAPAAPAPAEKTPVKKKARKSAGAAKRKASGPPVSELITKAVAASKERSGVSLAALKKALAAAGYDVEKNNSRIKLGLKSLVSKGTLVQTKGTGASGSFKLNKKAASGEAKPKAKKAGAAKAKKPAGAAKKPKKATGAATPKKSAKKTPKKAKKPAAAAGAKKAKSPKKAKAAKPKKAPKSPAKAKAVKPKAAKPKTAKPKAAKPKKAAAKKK
Description: Detection of H1 acetylation was performed by using 4 μg of histone H1 (Upstate Biotechnology, Inc., Lake Placid, N.Y.) as an acetylated substrate for SirT1 in the NER. Deacetylation was determined by first performing a deacetylation assay using 20 and 40 μg of H1 and 6 nmol of SirT1. H1 was then isolated in the supernatant of chilled 5% perchloric acid, TCA precipitated (Albig, et al. (1998) FEBS Lett. 435:245-250), and resuspended in buffer C containing 100 mM KCl. Deacetylated H1 was then used in a subsequent NER. In vitro acetylation of H1 or recombinant H1b expressed in E. coli was carried out by incubating 10 μg H1 with 2 nmol baculovirus-generated p300 in the presence of 0.875 μCi [H^3]-Ac-CoA (Amersham, Piscataway, N.J.) in HAT buffer (75 mM Tris-HCl [pH 8.8], 135 mM NaCl). Deacetylation was carried out with the specified enzyme as above using 1 μg of the labeled Hi. […] Counts were then determined by liquid scintillation (PERKINELMER, Wellesley, Mass.) . […] In vivo H1 acetylation was analyzed by treating 293 cells for 18 hours in media containing 5 mM nicotinamide. H1 was purified as described (Albig, et al. (1998) supra) and analyzed in the NER. […]
SirT1 activity on histone H1 was directly tested in vitro. […] The same result was observed using recombinant human H1b; however, specificity was also scored in this assay using different SirT proteins.

[1] = test system: pTK-Luc reporter under the control of Gal4; test: Transient transfection Gal4 pTK-Luc reporter assay; type: cell-based; details: 293F cells, luciferase normalized to β-galactosidase
Description: Transfections. All transfections were carried out in 293F cells using the indicated plasmids and POLYFECT (QIAGEN, Valencia, Calif.) following the protocol provided by the manufacturer. Nuclear and cytoplasmic fractions were isolated by a modified protocol (Dignam, et al. (1983) Methods Enzymol. 101:582-598). Fractions were analyzed by immunoprecipitation with the indicated antibodies followed by immunoblotting, or by luciferase activity (TD20e luminometer; Turner BioSystems, Sunnyvale, Calif.) . In the case of transient transfections, a β-gal reporter was used as a transfection control and the levels of luciferase activity were normalized to those of β-galactosidase, shown as a percentage. dsRNAi was ordered as a custom SMARTPOOL against SirT1 (Dharmacon, Lafayette, Colo.) and was transfected into U2OS cells using RNAFECT (QIAGEN, Valencia, Calif.). After incubation for 48 hours, cells were harvested and lysed with RIPA buffer (50 mM Tris-HCl, pH 7.4, 1% NP40, 0.25% Na-deoxycholate, 150 mM NaCl, 1 mM EDTA, 1 mM PMSF, 1 mM leupeptin, 1 mM aprotinin, and 1 mM pepstatin). Western blots were performed using the indicated antibodies. Total H4 was visualized by both western and COOMASSIE blue staining.
Plasmids. […]

B1: SirT2: Recombinant SirT2 expressed in E. coli (protein)
chain: MAEPDPSHPLETQAGKVQEAQDSDSDSEGGAAGGEADMDFLRNLFSQTLSLGSQKERLLDELTLEGVARYMQSERCRRVICLVGAGISTSAGIPDFRSPSTGLYDNLEKYHLPYPEAIFEISYFKKHPEPFFALAKELYPGQFKPTICHYFMRLLKDKGLLLRCYTQNIDTLERIAGLEQEDLVEAHGTFYTSHCVSASCRHEYPLSWMKEKIFSEVTPKCEDCQSLVKPDIVFFGESLPARFFSCMQSDFLKVDLLLVMGTSLQVQPFASLISKAPLSTPRLLINKEKAGQSDPFLGMIMGLGGGMDFDSKKAYRDVAWLGECDQGCLALAELLGWKKELEDLVRREHASIDAQSGAGVPNPSTSASPKKSPPPAKDEARTTEREKPQ
H1b deacetylation (recombinant human H1b): failed to significantly deacetylate H1b

B2: SirT3: Recombinant SirT3 expressed from baculovirus in SF9 cells (protein)
chain: MAFWGWRAAAALRLWGRVVERVEAGGGVGPFQACGCRLVLGGRDDVSAGLRGSHGARGEPLDPARPLQRPPRPEVPRAFRRQPRAAAPSFFFSSIKGGRRSISFSVGASSVVGSGGSSDKGKLSLQDVAELIRARACQRVVVMVGAGISTPSGIPDFRSPGSGLYSNLQQYDLPYPEAIFELPFFFHNPKPFFTLAKELYPGNYKPNVTHYFLRLLHDKGLLLRLYTQNIDGLERVSGIPASKLVEAHGTFASATCTVCQRPFPGEDIRADVMADRVPRCPVCTGVVKPDIVFFGEPLPQRFLLHVVDFPMADLLLILGTSLEVEPFASLTEAVRSSVPRLLINRDLVGPLAWHPRSRDVAQLGDVVHGVESLVELLGWTEEMRDLVQRETGKLDGPDK
H1b deacetylation (recombinant human H1b): failed to significantly deacetylate H1b

B3: G4-SirT1: SirT1 fused to the Gal4 DNA binding domain (protein)
chain: MKLLSSIEQACDICRLKKLKCSKEKPKCAKCLKNNWECRYSPKTKRSPLTRAHLTEVESRLERLEQLFLLIFPREDLDMILKMDSLQDIKALLTGLFVQDNVNKDAVTDRLASVETDMPLTLRQHRISATSSSEESSNKGQRQLTVSMADEAALALQPGGSPSAAGADREAASSPAGEPLRKRPRRDGPGLERSPGEPGGAAPEREVPAAARGCPGAAAAALWREAEAEAAAAGGEQEAQATAAAGEGDNGPGLQGPSREPPLADNLYDEDDDDEGEEEEEAAAAAIGYRDNLLFGDEIITNGFHSCESDEEDRASHASSSDWTPRPRIGPYTFVQQHLMIGTDPRTILKDLLPETIPPPELDDMTLWQIVINILSEPPKRKKRKDINTIEDAVKLLQECKKIIVLTGAGVSVSCGIPDFRSRDGIYARLAVDFPDLPDPQAMFDIEYFRKDPRPFFKFAKEIYPGQFQPSLCHKFIALSDKEGKLLRNYTQNIDTLEQVAGIQRIIQCHGSFATASCLICKYKVDCEAVRGDIFNQVVPRCPRCPADEPLAIMKPEIVFFGENLPEQFHRAMKYDKDEVDLLIVIGSSLKVRPVALIPSSIPHEVPQILINREPLPHLHFDVELLGDCDVIINELCHRLGGEYAKLCCNPVKLSEITEKPPRTQKELAYLSELPPTPLHVSEDSSSPERTSPPDSSVIVTLLDQAAKSNDDLDVSESKGCMEEKPQEVQTSRNVESIAEQMENPDLKNVGSSTGEKNERTSVAGTVRKCWPNRVAKEQISRRLDGNQYLFLPPNRYIFHGAEVYSDSEDDVLSSSSCGSNSDSGTCQSPSLEEPMEDESEIEEFYNGLEDEPDVPERAGGAGFGTDGDDQEAINEAISVKQEVTDMNYPSNKS
repression of reporter expression [1]: approximately 100%
